Source: patent publication US20210214440A1

Target: CD3 (UniProt P07766)
Assay: method and format not stated

B1: CD3B450 (antibody, V domains shown)
VH: QVQLQQSGPGLVKPSQTLSLTCAISGDSVFNNNAAWSWIRQSPSRGLEWLGRTYYRSKWLYDYAVSVKSRITINPDTSKNQFSLQLNSVTPEDTAVYYCARGYSSSFDYWGQGTLVTVSS
VL: QSALTQPASVSGSPGQSITISCTGTSSNIGTYKFVSWYQQHPGKAPKVMIYEVSKRPSGVSNRFSGSKSGNTASLTISGLQAEDEADYYCVSYAGSGTLLFGGGTKLTVL
- Kd: 80 nM
